Test results: US20130158238A1 (THERACLONE SCIENCES, published 2013)
Several values for one entry are separate records, joined by “and”; a condition that tells them apart may be missing. Identical values can stand only once.

B1: 8i10 (antibody, V domains shown)
VH: QVQLQESGPGLVKPSETLSLTCTVSGSSISNYYWSWIRQSPGKGLEWIGFIYYGGNTKYNPSLKSRVTISQDTSKSQVSLTMSSVTAAESAVYFCARASCSGGYCILDYWGQGTLVTVS
VL: DIQMTQSPSSLSASVGDRVTITCRASQNIYKYLNWYQQRPGKAPKGLISAASGLQSGVPSRFSGSGSGTDFTLTITSLQPEDFATYYCQQSYSPPLTFGGGTRVEIK
B2: 23K12 (antibody, V domains shown)
VH: EVQLVESGGGLVQPGGSLRISCAASGFTVSSNYMSWVRQAPGKGLEWVSVIYSGGSTYYADSVKGRFSFSRDNSKNTVFLQMNSLRAEDTAVYYCARCLSRMRGYGLDVWGQGTTVTVS
VL: DIQMTQSPSSLSASVGDRVTITCRTSQSISSYLNWYQQKPGKAPKLLIYAASSLQSGVPSRFSGSGSGTDFTLTISGLQPEDFATYYCQQSYSMPAFGQGTKLEIK

What was measured:
[1] = molecular target: M2 protein on influenza A/Puerto Rico/8/34 (H1N1) virus particles (Influenza A virus A/Puerto Rico/8/34 …, UniProt P06821 1-97)
[2] = molecular target: M2 protein of A/Hong Kong/483/1997, on cells (Influenza A virus A/Hong Kong/483/97 (H5N1)); assay: FACS, supernatant on CHO cells stably expressing M2 of A/Hong Kong/483/97
NM12 = assay: ELISA, peptide 2 µg/mL, mAb 5 µg/mL
CM15 = assay: ELISA, peptide 2 µg/mL, mAb 5 µg/mL
NM7 = assay: ELISA, peptide 2 µg/mL, mAb 5 µg/mL
CM16 = assay: ELISA, peptide 2 µg/mL, mAb 5 µg/mL
NM13 = assay: ELISA, peptide 2 µg/mL, mAb 5 µg/mL
CM17 = assay: ELISA, peptide 2 µg/mL, mAb 5 µg/mL
NM8 = assay: ELISA, peptide 2 µg/mL, mAb 5 µg/mL
NM14 = assay: ELISA, peptide 2 µg/mL, mAb 5 µg/mL
M16 = assay: ELISA, peptide 2 µg/mL, mAb 5 µg/mL
CM12 = assay: ELISA, peptide 2 µg/mL, mAb 5 µg/mL
CM13 = assay: ELISA, peptide 2 µg/mL, mAb 5 µg/mL
CM14 = assay: ELISA, peptide 2 µg/mL, mAb 5 µg/mL
NM17 = assay: ELISA, peptide 2 µg/mL, mAb 5 µg/mL
M12 = assay: ELISA, peptide 2 µg/mL, mAb 5 µg/mL
[3] = molecular target: M2e peptide … (23mer synthetic peptide of M2 derived from A/Fort Worth/1/50) (Influenza A virus A/Fort Worth/1/50 (H1N1)); assay: ELISA, peptide 2 µg/mL, mAb 5 µg/mL
NM15 = assay: ELISA, peptide 2 µg/mL, mAb 5 µg/mL
M15 = assay: ELISA, peptide 2 µg/mL, mAb 5 µg/mL

| Binder | EC50 (read off the curve) [1] [µg/mL] | FACS M2-HK MFI [2] | binding activity (ELISA A450) (NM12) | binding activity (ELISA A450) (CM15) | binding activity (ELISA A450) (NM7) | binding activity (ELISA A450) (CM16) | binding activity (ELISA A450) (NM13) | binding activity (ELISA A450) (CM17) | binding activity (ELISA A450) (NM8) | binding activity (ELISA A450) (NM14) | binding activity (ELISA A450) (M16) | binding activity (ELISA A450) (CM12) | binding activity (ELISA A450) (CM13) | binding activity (ELISA A450) (CM14) | binding activity (ELISA A450) (NM17) | binding activity (ELISA A450) (M12) | binding activity (ELISA A450) [3] | binding activity (ELISA A450) (NM15) | binding activity (ELISA A450) (M15) |
| --- | --- | --- | --- | --- | --- | --- | --- | --- | --- | --- | --- | --- | --- | --- | --- | --- | --- | --- | --- |
| B1 | ~0.04 | 754 MFI and 1080 MFI | 0.1 | 0.12 | 0.1 | 0.13 | 0.11 | 0.11 | 0.1 | 0.11 | 0.09 | 0.14 | 0.14 | 0.14 | 0.26 | 0.09 | 0.11 | 0.12 | 0.09 |
| B2 | ~0.06 |  | 0.24 | 0.34 | 0.2 | 0.35 | 0.25 | 0.34 | 0.2 | 0.24 |  | 0.39 | 0.34 | 0.36 |  | 0.2 |  |  |  |
